Signal to noise ratio data for 1 substance are collected here from patent publication US20180017550A1.

The assay has as its target human APC mutation cluster region fragment (codons 1,294-1,369) with N-terminal VSV tag, 4 glycine s (human) (UniProt P25054).

human APC mutation cluster region fragment (codons 1,294-1,369) with N-terminal VSV tag, 4 glycine s (human), sequence (P25054 other isoform, or with tags, fused parts or gaps limits assumed): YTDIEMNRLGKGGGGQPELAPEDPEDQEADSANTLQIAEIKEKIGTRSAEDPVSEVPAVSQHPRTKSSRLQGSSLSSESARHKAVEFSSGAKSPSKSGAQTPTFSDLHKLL

As to “anti-VSV antibody conjugated to the Cy3 fluorophore (clone P5D4; Sigma-Aldrich, St. Louis, Mo.)”, the signal to noise ratio is 179 :1.
